Measurements as given in PMC2845643 (2011).

Experiments:
Experiment in all cases: IAANS fluorescence titration
[1] = target: cardiac troponin C (M45Q TnC IAANS T53C) (Homo sapiens, UniProt P63316)
[2] = target: cardiac troponin C (TnC IAANS T53C) (Homo sapiens, UniProt P63316)
[3] = target: cardiac troponin C (F20Q TnC IAANS T53C) (Homo sapiens, UniProt P63316)
[4] = target: cardiac troponin C (L48Q TnC IAANS T53C) (Homo sapiens, UniProt P63316)
[5] = target: cardiac troponin C (V44Q TnC IAANS T53C) (Homo sapiens, UniProt P63316)

Kd [1]: 289 nM
Kd [2]: 200 nM
Kd [3]: 318 nM
Kd [4]: 268 nM
Kd [5]: 262 nM
B1: cardiac troponin I peptide TnI128-180 128-180 (protein)
chain: LTQKIFDLRGKFKRPTLRRVRISADAMMQALLGARAKESLDLRAHLKQVKKED
